Measured values as given in paper PMC10960814.

What was measured:
[1] = target: full-length human IR-A, Myc-tagged (pCS2-IR-A-Myc) (human) (UniProt P06213); assay: competition-binding assay (fluorescent insulin on bead-bound receptor); IR-A-Myc or IR-B-Myc held on anti-c-Myc magnetic beads; 1 nM Alexa Fluor labeled human insulin and the indicated amount of homemade IGF2, 4 °C, 14 h; 20 mM Hepes pH 7.4, 200 mM NaCl, 0.03% DDM, 0.003% CHS, 100 nM BSA; fluorescence of the eluate
[2] = target: full-length human IR-B, Myc-tagged (pCS2-IR-B-Myc) (human) (UniProt P06213); assay: as above
[3] = target: full-length human insulin receptor, B isoform (hIR-B), with a kinase-dead mutation, construct for structural studies (human); assay: cryo-EM structure; purified hIR-A or hIR-B dimer fraction (20 mM HEPES-Na pH 7.5, 400 mM NaCl, 0.03% DDM) with refolded IGF2 added at a 2:8 (m/m) ratio, 2 h; saturated IGF2

IGF2 R30A mutant (ligand)
fold of binding affinity against IGF2 WT [1]: 3 fold
fold of binding affinity against IGF2 WT [2]: 3 fold

insulin-like growth factor 2 (IGF2), wild type, homemade (from UniProt P01344 25-91) (ligand)
stoichiometry N (IGF2 per IR dimer (class 1, symmetric)) [3]: 4
stoichiometry N (IGF2 per IR dimer (class 2, asymmetric)) [3]: 3
stoichiometry N ([3]; scale: IGF2 per IR dimer): 2
